Laboratory results as given in the supplement of paper PMC9732359.
± gives the uncertainty stated by the source.

Assay: protein stability index of a GFP-peptide fusion (yeast GPS) (PSI 1-4); higher = more stable; sorted into four equal gates, so the index is relative within each strain
Outline: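 Plasmids in a pooled yeast library fused tiled 17-residue yeast protein peptides downstream of GFP and also expressed Cherry. Mid-log cultures grown without leucine were sorted into four equal gates by GFP/Cherry fluorescence ratio. Each gate's plasmids were PCR-amplified and Illumina-sequenced, and reads were matched to strains by barcodes. The protein stability index is derived by multiplying each gate's read frequency by its gate number and summing the results.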

| Sequence | protein stability index (doa10∆) | protein stability index (pdr5∆) | protein stability index (ubr1∆) | protein stability index (san1∆) |
| --- | --- | --- | --- | --- |
| LHDTQIEGKLHMATALQ [RPN10] | 2.48 ± 0.22 | 2.37 ± 0.2 | 2.38 ± 0.23 |  |
| GLVKQHLDSFNYFVDTD [RET1] | 3.46 ± 0.17 | 3.05 ± 0.097 | 3.36 ± 0.075 | 2.97 ± 0.11 |
| EQSLEVFIFPTSNWEIY [SRB8] | 2.47 ± 0.067 | 2.2 ± 0.048 | 2.52 ± 0.033 | 2.57 ± 0.044 |
| VTLRKSLYTNTSRKALE [RPL3] | 2.66 ± 0.069 | 2.26 ± 0.059 | 1.78 ± 0.072 | 1.78 ± 0.078 |
| SGDNHTQQSHEQQPEQP [RPT4] | 2.96 ± 0.052 | 3.15 ± 0.064 | 2.95 ± 0.049 | 3.03 ± 0.06 |
| EIARQMRDKSFGRTLAS [RPL12A] | 3.25 ± 0.1 | 3.07 ± 0.12 | 2.72 ± 0.18 | 2.88 ± 0.13 |
| SGITGECLQAYIFFGPI [RET1] | 2.6 ± 0.059 | 2.72 ± 0.064 | 2.79 ± 0.051 | 2.64 ± 0.076 |
| DKEKEENNDDALDLDLD [MED4] | 2.92 ± 0.072 | 3.12 ± 0.095 | 3.16 ± 0.054 | 2.95 ± 0.063 |
| PRQLHNTHWGLVCPAET [RPB2] | 1.6 ± 0.089 | 1.7 ± 0.07 | 1.2 ± 0.088 | 1.47 ± 0.12 |
| DVLHPNRANVSKDELRE [RPS24A] | 3.35 ± 0.086 | 3.29 ± 0.11 | 3.1 ± 0.086 | 3.19 ± 0.092 |
| RSPTRRLELLQLSPVKN [SMC4] | 1.38 ± 0.26 | 1.64 ± 0.19 | 1.68 ± 0.13 |  |
| LLPQWDDDQIESLKKSP [ARP9] | 3.17 ± 0.085 | 3.15 ± 0.061 | 3.12 ± 0.052 | 3.1 ± 0.051 |
| TSYKKWSFDLPEMSNLY [PRP8] | 2.6 ± 0.055 | 2.52 ± 0.05 | 2.13 ± 0.044 | 2.26 ± 0.058 |
| KMEKKKSSSLSLESFMK [SNM1] | 3.06 ± 0.1 | 3.32 ± 0.12 | 2.97 ± 0.084 | 2.93 ± 0.14 |
| EPSGIYSSWSAQTIGRN [PRE6] | 1.24 ± 0.064 | 1.21 ± 0.089 | 1.53 ± 0.097 | 1.06 ± 0.18 |
| DSILNYAKSEFDNVASV [ECM29] | 3.22 ± 0.11 | 3.14 ± 0.15 | 3.15 ± 0.18 | 3.04 ± 0.087 |
| PFKFGKTSEKSENHTES [YOR098C/NUP1] | 2.94 ± 0.16 | 3.05 ± 0.14 | 2.92 ± 0.17 | 3.1 ± 0.15 |
| KPKNTKENLSKSSWRQE [SIR4] | 1.35 ± 0.076 | 1.21 ± 0.049 | 1.5 ± 0.049 | 1.21 ± 0.1 |
| GKKKSATAVAHVKAGKG [RPS16A] | 2.86 ± 0.094 | 2.69 ± 0.073 | 2.53 ± 0.11 | 2.49 ± 0.11 |
| DTLNETNLKMKRKWSYV [RRP43] | 2.24 ± 0.061 | 2.56 ± 0.04 | 2.61 ± 0.073 | 2.98 ± 0.1 |
| WRQFGNRMQISPDQMRN [GRR1] | 3.07 ± 0.12 | 3.14 ± 0.12 | 2.75 ± 0.11 | 2.89 ± 0.11 |
| DTNVVLQAIDLLENPNC [DIS3] | 2.84 ± 0.07 | 2.75 ± 0.063 | 2.73 ± 0.046 | 2.63 ± 0.074 |
| FKSTESNISDEKSRISE [YMR129W/POM152] | 3.3 ± 0.2 | 3.01 ± 0.16 | 3.05 ± 0.17 | 2.78 ± 0.12 |
| LGQYVQAHTLYNSVRPF [PRE10] | 2.74 ± 0.1 | 2.87 ± 0.099 | 2.65 ± 0.053 | 2.78 ± 0.11 |
| KRFNIGADPNYRTYSER [RPR2] | 3.08 ± 0.15 | 3.4 ± 0.14 | 3.35 ± 0.11 | 2.89 ± 0.28 |
| LYQDMAARHRARFRSIH [RPL20A] | 2.81 ± 0.071 | 2.71 ± 0.048 | 2.95 ± 0.07 | 2.96 ± 0.051 |

| Sequence | protein stability index (doa10∆) | protein stability index (pdr5∆) | protein stability index (ubr1∆) | protein stability index (san1∆) |
| --- | --- | --- | --- | --- |
| HIKEASEEVDDLSMVPK [SNF2] | 3.27 ± 0.11 | 3.24 ± 0.25 | 3.6 ± 0.16 | 3.13 ± 0.1 |
| HRLSILSHYAKIRPWRT [RPO31] | 2.81 ± 0.068 | 2.77 ± 0.066 | 2.84 ± 0.052 | 2.85 ± 0.087 |
| VRYEEKRELKQLLEKAP [BRR2] | 1.86 ± 0.093 | 2.35 ± 0.084 | 2.4 ± 0.12 | 1.89 ± 0.18 |
| RAYRIIRAHQTELTHHL [QCR7] | 3.03 ± 0.11 | 3.34 ± 0.081 | 2.96 ± 0.064 | 3.01 ± 0.07 |
| NPLMYSGGNNTATIINN [PCI8] | 2.93 ± 0.064 | 2.9 ± 0.057 | 3.11 ± 0.045 | 3.12 ± 0.05 |
| ALELDDTVVSRVNEMVQ [ECM29] | 3.16 ± 0.17 |  | 3.16 ± 0.1 |  |
| LHNLNEYQIVYYNPQAG [RGR1] | 1.41 ± 0.27 | 2.44 ± 0.15 |  | 2.1 ± 0.11 |
| HFAWLPTHIWNAKRSHM [POP1] | 1.99 ± 0.033 | 1.67 ± 0.035 | 1.5 ± 0.026 | 1.45 ± 0.059 |
| MELLTQMDGFDNLGQTK [RPT4] | 3.53 ± 0.09 | 3.56 ± 0.11 | 3.44 ± 0.079 | 3.65 ± 0.081 |
| KALDRHEFFIANHDDQD [SRP68] | 3.1 ± 0.058 | 2.98 ± 0.091 | 3.17 ± 0.07 | 2.89 ± 0.057 |
| TNLYKLKEERAIEPETF [PUP3] | 3.16 ± 0.12 | 2.97 ± 0.13 | 3.25 ± 0.097 | 3.45 ± 0.066 |
| NNIVSVLTAGVNSVAIK [RPN11] | 2.28 ± 0.075 | 2.26 ± 0.087 | 1.97 ± 0.058 | 2.66 ± 0.078 |
| ALRDVKNNNNANNNGSN [GAL11] | 3.33 ± 0.095 | 2.95 ± 0.14 | 3.41 ± 0.11 | 3.13 ± 0.12 |
| YKAISAQADKQDISSST [FAS2] | 2.91 ± 0.073 | 2.87 ± 0.058 | 2.83 ± 0.045 | 2.3 ± 0.062 |
| LTVSIKIALMNIPKPLN [RGR1] | 1.19 ± 0.044 | 1.43 ± 0.057 | 1.66 ± 0.032 | 1.54 ± 0.059 |
| TEVERAKSLLKLQLGQL [COR1] | 1.42 ± 0.042 | 1.31 ± 0.048 | 1.37 ± 0.037 | 1.36 ± 0.065 |
| LYAERVQDRGLSAVAQA [RPS3] | 3.09 ± 0.069 | 3.28 ± 0.065 | 3.22 ± 0.044 | 3.3 ± 0.09 |
| KNSSVSSLMNGLGYVFE [SRB5] | 3.06 ± 0.14 | 1.72 ± 0.073 | 2.51 ± 0.056 | 2.4 ± 0.1 |
| AVVGNNMLLDPAANESE [RRP42] | 1.47 ± 0.083 | 1.81 ± 0.073 | 2.12 ± 0.048 | 2.48 ± 0.093 |
| HYERTQTKENKRCVGVI [RPN8] | 2.9 ± 0.12 | 2.69 ± 0.1 | 2.43 ± 0.057 | 2.49 ± 0.093 |
| IASTEKPENKTDKVSLS [SIR4] | 3.21 ± 0.069 | 3.1 ± 0.09 | 2.89 ± 0.088 | 3.17 ± 0.067 |
| GTPKTDSFIFDGTAKEV [MED4] | 2.32 ± 0.041 | 2.43 ± 0.046 | 2.65 ± 0.045 | 2.58 ± 0.071 |
| GNSFHLMRELLKMMKLI [PRP8] | 2.78 ± 0.051 | 2.41 ± 0.046 | 2.43 ± 0.049 | 2.6 ± 0.065 |
| QSLDTIGGSDAAFEKRY [RPO21] | 3.25 ± 0.095 | 3.38 ± 0.074 | 3.25 ± 0.06 | 3.37 ± 0.049 |
| AQYFYSGAYSYPDFRHY [DIS3] | 1.43 ± 0.056 | 1.43 ± 0.09 | 1.56 ± 0.081 | 1.87 ± 0.16 |
| CFSQENIEEMARVILYL [SIN4] | 2.47 ± 0.083 | 2.76 ± 0.14 | 2.76 ± 0.054 | 2.79 ± 0.095 |
